Target: VN-HOXA9 (human) (UniProt P31269)
Test: split reporter (BiFC, NanoBiT); individual BiFC in live HEK293T cells: plix-VN-HOXA9, plix-CC-ORF and plix-mCherry co-transfected, 18 h with doxycycline 100 ng/mL, confocal imaging; HOXA9/PBX1 as calibrator

UniProt P31269, sequence (P31269 whole entry): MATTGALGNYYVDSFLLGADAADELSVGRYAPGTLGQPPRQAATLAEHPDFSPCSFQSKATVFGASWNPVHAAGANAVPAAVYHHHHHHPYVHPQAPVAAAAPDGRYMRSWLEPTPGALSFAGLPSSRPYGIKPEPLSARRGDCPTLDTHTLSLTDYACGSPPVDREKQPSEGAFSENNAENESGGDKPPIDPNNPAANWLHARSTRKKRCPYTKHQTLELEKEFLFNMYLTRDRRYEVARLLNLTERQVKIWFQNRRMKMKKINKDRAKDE

- BiFC fluorescence as percent of HOXA9/PBX1 BiFC: < 15%
Substance: CC-C6orf201 (from UniProt B3KW47 1-115) (natural protein)

— paper PMC9818449
